Substitutions are numbered along the chain they refer to. Ends that are not written are not given here.
T1: FX activation peptide 12-mer DLLDFNQTQPER (human)
T1 peptide: DLLDFNQTQPER-biotin

T2: FX activation peptide 12-mer WKPYDAADLDPT (human)
T2 peptide: WKPYDAADLDPT-biotin

T3: FX activation peptide 12-mer FNQTQPERGDNN (human)
T3 peptide: FNQTQPERGDNN-biotin

T4: FX activation peptide 12-mer FDLLDFNQTQPE (human)
T4 peptide: FDLLDFNQTQPE-biotin

T5: FX activation peptide 12-mer SVAQATSSSGEA (human)
T5 peptide: SVAQATSSSGEA-biotin

T6: FX activation peptide 12-mer AADLDPTENPFD (human)
T6 peptide: AADLDPTENPFD-biotin

T7: FX activation peptide 12-mer NQTQPERGDNNL (human)
T7 peptide: NQTQPERGDNNL-biotin

T8: FX activation peptide 12-mer YDAADLDPTENP (human)
T8 peptide: YDAADLDPTENP-biotin

T9: FX activation peptide 12-mer NPFDLLDFNQTQ (human)
T9 peptide: NPFDLLDFNQTQ-biotin

T10: FX activation peptide 12-mer DFNQTQPERGDN (human)
T10 peptide: DFNQTQPERGDN-biotin

T11: FX activation peptide 12-mer VAQATSSSGEAP (human)
T11 peptide: VAQATSSSGEAP-biotin

T12: FX activation peptide 12-mer ATSSSGEAPDSI (human)
T12 peptide: ATSSSGEAPDSI-biotin

T13: FX activation peptide 12-mer SGEAPDSITWKP (human)
T13 peptide: SGEAPDSITWKP-biotin

T14: FX activation peptide 12-mer AQATSSSGEAPD (human)
T14 peptide: AQATSSSGEAPD-biotin

T15: FX activation peptide 12-mer DSITWKPYDAAD (human)
T15 peptide: DSITWKPYDAAD-biotin

T16: FX activation peptide 12-mer SSSGEAPDSITW (human)
T16 peptide: SSSGEAPDSITW-biotin

B1: Nb 729A04 (VHH)
VHH: EVQLVESGGGVVQPGGSLRLSCAASGFTFSDYAMSWVRQAPGKGLEWVSGITSGGGRTYYADSVKGRFTISRDNSKNTLYLQMNSLRPEDTALYYCAAVRTLGLRGSYDYWGQGTLVTVSS
notes: monovalent Nanobody; not shown: C-terminal FLAG3 and HIS6 tag
B2: Nb 501A02 (VHH)
VHH: EVQLVESGGGLVQPGGSLRLSCAASGFTFSNYEMSWVRQAPGKGLEWVSDIGSGGGVSTYYADSVKGRFTISRDNAKNTLYLQMNSLKPEDTAMYYCARGWTYGSDGMDYWGKGTLVTVSS
notes: monovalent control Nanobody; also called control Nanobody; not shown: C-terminal FLAG3 and HIS6 tag
B3: Nb 701C06 (VHH)
VHH: EVQLVESGGGVVQPGGSLRLSCAASGRTFSTYAMGWFRQAPGKEREFVAAISRRGGRTYYADSVKGRFTISRDNSKNTVYLQMNSLRPEDTALYYCAADATARDGLLDYWGQGTLVTVSS
notes: as for B1
B4: Nb 701D07 (VHH)
VHH: EVQLVESGGGVVQPGGSLRLSCAASGGTLSRYAMGWFRQAPGKEREFVAAITRRGSRTYYADSVKGRFTISRDNSKNTVYLQMNSLRPEDTALYYCAADLAPGDYALDYWGQGTLVTVSS
notes: as for B1
B5: Nb 701B09 (VHH)
VHH: B3 VHH with R53W, R54S, G56S, A102P, R103A, D104N, L106E
notes: monovalent Nanobody; also called Nb 701609; not shown: C-terminal FLAG3 and HIS6 tag

Biological target: T1, FX activation peptide 12-mer …
Test: peptide ELISA
Protocol: (§1) The peptides were C-terminally conjugated to biotin and 50 μL of 1 μg/mL peptide solution was used for immobilization in discrete wells of the microtiter plate which was pre-coated with 1 μg/mL streptavidin. Each well was washed with washing buffer (10 mM Tris, 150 mM NaCl, 2.5 mM CaCl₂, 0.05% Tween 20, pH 8.60) followed by addition of 50 μL of 2 μg/mL FLAG-tagged anti-FX Nanobody® or IgG antibody to be tested. After 1 hour non-bound Nanobody®/antibody was washed off using washing buffer.
(§2) Bound anti-FX activation peptide ligand was detected by first binding a HRP-labelled secondary antibody (for FLAG-tagged Nanobodies: Anti-FLAG mAb M2-Peroxidase (HRP) (Sigma Aldrich, US), for antibody: Fcγ Fragment Specific Peroxidase AffiniPure F(ab′)₂ Fragment Goat Anti-Human IgG (Jackson ImmunoResearch Laboratories, Inc., US), or Peroxidase AffiniPure Goat Anti-Mouse IgG (Jackson ImmunoResearch Laboratories, Inc., US)) for 1 hour, and then adding 100 μL TMB-1 ELISA substrate (Kem-En-Tec Diagnostics, Denmark).

ELISA signal relative to background | binding result | Binder
1.12 | – | B1
0.76 | no binding (tested: 2 µg/mL) | B2
1.13 | – | B3
0.81 | – | B4
1.17 | – | B5

Biological target: T2, FX activation peptide 12-mer …
Test: peptide ELISA
Protocol: as §1, §2

ELISA signal relative to background | binding result | Binder
1.2 | – | B1
0.74 | no binding (tested: 2 µg/mL) | B2
0.99 | – | B3
0.85 | – | B4
1.14 | – | B5

Biological target: T3, FX activation peptide 12-mer …
Test: peptide ELISA
Protocol: as §1, §2

ELISA signal relative to background | binding result | Binder
1.05 | – | B1
0.71 | no binding (tested: 2 µg/mL) | B2
0.88 | – | B3
0.82 | – | B4
0.89 | – | B5

Biological target: T4, FX activation peptide 12-mer …
Test: peptide ELISA
Protocol: as §1, §2

ELISA signal relative to background | binding result | Binder
0.85 | no binding (tested: 2 µg/mL) | B2
0.99 | – | B4
3.27 | – | B5

Biological target: T5, FX activation peptide 12-mer …
Test: peptide ELISA
Protocol: as §1, §2

ELISA signal relative to background | binding result | Binder
0.92 | – | B1
0.74 | no binding (tested: 2 µg/mL) | B2
0.92 | – | B3
0.76 | – | B4
0.76 | – | B5

Biological target: T6, FX activation peptide 12-mer …
Test: peptide ELISA
Protocol: as §1, §2

ELISA signal relative to background | binding result | Binder
1.05 | – | B1
0.79 | no binding (tested: 2 µg/mL) | B2
0.82 | – | B3
0.69 | – | B4
0.79 | – | B5

Biological target: T7, FX activation peptide 12-mer …
Test: peptide ELISA
Protocol: as §1, §2

ELISA signal relative to background | binding result | Binder
1.13 | – | B1
0.71 | no binding (tested: 2 µg/mL) | B2
0.85 | – | B3
0.87 | – | B4
0.79 | – | B5

Biological target: T8, FX activation peptide 12-mer …
Test: peptide ELISA
Protocol: as §1, §2

ELISA signal relative to background | binding result | Binder
1.06 | – | B1
0.71 | no binding (tested: 2 µg/mL) | B2
0.85 | – | B3
0.75 | – | B4
0.81 | – | B5

Biological target: T9, FX activation peptide 12-mer …
Test: peptide ELISA
Protocol: as §1, §2

ELISA signal relative to background | binding result | Binder
8.27 | – | B1
0.94 | no binding (tested: 2 µg/mL) | B2
2.16 | – | B5

Biological target: T10, FX activation peptide 12-mer …
Test: peptide ELISA
Protocol: as §1, §2

ELISA signal relative to background | binding result | Binder
0.97 | – | B1
0.71 | no binding (tested: 2 µg/mL) | B2
0.87 | – | B3
0.75 | – | B4
0.87 | – | B5

Biological target: T11, FX activation peptide 12-mer …
Test: peptide ELISA
Protocol: as §1, §2

ELISA signal relative to background | binding result | Binder
0.99 | – | B1
0.88 | no binding (tested: 2 µg/mL) | B2
0.93 | – | B3
0.84 | – | B4
0.73 | – | B5

Biological target: T12, FX activation peptide 12-mer …
Test: peptide ELISA
Protocol: as §1, §2

ELISA signal relative to background | binding result | Binder
1.24 | – | B1
0.82 | no binding (tested: 2 µg/mL) | B2
0.91 | – | B3
0.86 | – | B4
0.82 | – | B5

Biological target: T13, FX activation peptide 12-mer …
Test: peptide ELISA
Protocol: as §1, §2

ELISA signal relative to background | binding result | Binder
0.98 | – | B1
0.76 | no binding (tested: 2 µg/mL) | B2
0.88 | – | B3
0.78 | – | B4
0.84 | – | B5

Biological target: T14, FX activation peptide 12-mer …
Test: peptide ELISA
Protocol: as §1, §2

ELISA signal relative to background | binding result | Binder
1.08 | – | B1
0.79 | no binding (tested: 2 µg/mL) | B2
0.91 | – | B3
0.89 | – | B4
0.75 | – | B5

Biological target: T15, FX activation peptide 12-mer …
Test: peptide ELISA
Protocol: as §1, §2

ELISA signal relative to background | binding result | Binder
1.05 | – | B1
0.79 | no binding (tested: 2 µg/mL) | B2
0.93 | – | B3
0.89 | – | B4
0.76 | – | B5

Biological target: T16, FX activation peptide 12-mer …
Test: peptide ELISA
Protocol: as §1, §2

ELISA signal relative to background | binding result | Binder
1.24 | – | B1
0.82 | no binding (tested: 2 µg/mL) | B2
0.9 | – | B3
0.73 | – | B4
0.84 | – | B5

Biological target: T17, human plasma-derived Factor X zymogen (human, UniProt P00742 41-179; P00742 183-488)
T17 construct: Plasma-derived, bought (Haematologic Technologies); also called FX; human FX
Test: apparent KD fitted from FXa generation assay
Protocol: The ability of the monovalent anti-FX Nanobody® (Nb) to promote FIXa-mediated FX-activation was determined in the presence of a procoagulant phospholipid membrane according to the principles described by Scheiflinger et al. (2008) J Thromb Haemost, 6:315-322. A Fab of mAb 13F62 (IgG1 isotype, variable sequences identified by SEQ ID NO:6 and 7), also found to bind the activation peptide, were included for comparison. Moreover, anti-FX antibodies as disclosed in U.S. Pat. No. 9,334,331 (J327 and L404-k in said publication), corresponding to the anti-FX arm of ACE910); and more recently in WO2018/021450 (J327 D31H and JYL280 in said publication) and WO2018/098363 (BIIB-12-917 represented by SEQ ID NO:427 and 615 in said publication) are stated to be suitable for use as part of anti-FIX/anti-FX bispecific FVIII mimetic compounds were, furthermore, included for comparison.
Each compound was tested individually in a concentration range from 0-1000 nM, 0-2000 nM, 0-4000 nM or 0-8000 nM by pre-incubation with 1-1.5 nM human plasma-derived FIXa (Haematologic Technologies Inc, USA) and 500 μM 25:75 phosphatidyl serine:phosphatidyl choline phospholipid vesicles (Haematologic Technologies Inc, USA) in assay buffer (50 mM HEPES, 100 mM NaCl, 5 mM CaCl₂, 0.1% (w/v) PEG8000, 1 mg/mL bovine serum albumin, pH 7.3) for 10 minutes. The reaction was initiated by addition of human plasma-derived FX (Haematologic Technologies Inc, USA) to a final concentration of 100 nM and a reaction volume of 50 μL. Following 20 minutes activation at room temperature while agitated (1000 RPM), the reaction was quenched by addition of 25 μL quench buffer (50 mM HEPES, 100 mM NaCl, 60 mM EDTA, 0.1% (w/v) PEG8000, 1 mg/mL bovine serum albumin, pH 7.3). The amount of FXa generated was determined by addition of 25 μL 2 mM S-2765 chromogenic substrate for FXa (Chromogenix, Sweden) and chromogenic substrate conversion was followed by measuring absorbance at 405 nm for 10 minutes in a microplate reader. The observed change in 405 nm absorbance (ΔAbs405/min) was fitted to the quadratic binding equation (eq. 1) to obtain the peak stimulatory activity and EC50.

T17 sequence (P00742 41-179, chain 1 of 2): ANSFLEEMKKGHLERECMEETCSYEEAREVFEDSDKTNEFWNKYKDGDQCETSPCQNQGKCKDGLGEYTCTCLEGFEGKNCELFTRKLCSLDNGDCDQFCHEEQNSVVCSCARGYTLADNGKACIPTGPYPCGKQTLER
T17 sequence (P00742 183-488, chain 2 of 2): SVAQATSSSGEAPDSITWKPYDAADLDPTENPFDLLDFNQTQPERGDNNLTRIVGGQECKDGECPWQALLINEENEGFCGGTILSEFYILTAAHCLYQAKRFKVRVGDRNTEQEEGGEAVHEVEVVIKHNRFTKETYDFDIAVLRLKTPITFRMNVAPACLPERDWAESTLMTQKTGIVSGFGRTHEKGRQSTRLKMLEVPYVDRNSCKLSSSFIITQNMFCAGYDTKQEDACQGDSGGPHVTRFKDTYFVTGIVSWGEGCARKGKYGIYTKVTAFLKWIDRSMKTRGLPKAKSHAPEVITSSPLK

Kd [nM] | Binder
83.2 | B1
802 | B2
41.9 | B3
66.1 | B4
72.3 | B5

Biological target: T17, human plasma-derived Factor X zymogen
Test: cell-based or functional assay

Increase in FX activation (fold) | Binder
4.1 | B1
0.8 | B2
26 | B3
17.2 | B4
83 | B5

Biological target: human activated Factor X (human, UniProt P00742 41-179; P00742 235-488)
Test: cell-based or functional assay

Sequence of human activated Factor X (P00742 41-179, chain 1 of 2): as the sequence (P00742 41-179, chain 1 of 2) above
Sequence of human activated Factor X (P00742 235-488, chain 2 of 2): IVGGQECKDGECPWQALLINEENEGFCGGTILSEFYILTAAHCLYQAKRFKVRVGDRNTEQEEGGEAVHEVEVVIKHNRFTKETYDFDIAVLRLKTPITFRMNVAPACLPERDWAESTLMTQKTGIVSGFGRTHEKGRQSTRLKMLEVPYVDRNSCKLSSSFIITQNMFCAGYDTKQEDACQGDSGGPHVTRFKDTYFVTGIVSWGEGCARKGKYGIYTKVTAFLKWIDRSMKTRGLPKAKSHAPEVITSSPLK

FXa amidolytic activity (relative to free FXa, fold) [fold] | Binder
1.11 | B1
1.06 | B3
1.05 | B4
1.06 | B5

From US20210054097A1 (Novo Nordisk, published 2021)
